Test results reported in US20020128201A1 (GREEN PEPTIDE, published 2002).

T1: HLA-A2402 (human, UniProt P04439-2 25-302 at identity 0.92))
T1 MHC heavy: not shown


Target: T1, HLA-A2402
Assay: cell-based or functional assay

Row | lowest peptide concentration at which enhancement of IFN-γ production by KE4-CTLs was detected (peptide-pulsed ClR/A2402 cells) [nM] | Binder
1 | ≥ 100 | HYTNASDGL [Lck208-216]
2 | ~1 | TFDYLRSVL [Lck486-494]
3 | ~1 | DYLRSVLEDF [Lck488-497]
